Measured values taken from PMC4051775, “Intestinal Cell Barrier Function In Vitro Is Severely Compromised by Keratin 8 and 18 Mutations Identified in Patients with Inflammatory Bowel Disease” (PLoS ONE, 2014).

T1: keratin 8 wild type recombinant protein (human, UniProt P05787 1-483)
T1 construct: keratin 8 (K8), wild type, recombinant protein; also called K8 WT; K8
T1 sequence (looked up): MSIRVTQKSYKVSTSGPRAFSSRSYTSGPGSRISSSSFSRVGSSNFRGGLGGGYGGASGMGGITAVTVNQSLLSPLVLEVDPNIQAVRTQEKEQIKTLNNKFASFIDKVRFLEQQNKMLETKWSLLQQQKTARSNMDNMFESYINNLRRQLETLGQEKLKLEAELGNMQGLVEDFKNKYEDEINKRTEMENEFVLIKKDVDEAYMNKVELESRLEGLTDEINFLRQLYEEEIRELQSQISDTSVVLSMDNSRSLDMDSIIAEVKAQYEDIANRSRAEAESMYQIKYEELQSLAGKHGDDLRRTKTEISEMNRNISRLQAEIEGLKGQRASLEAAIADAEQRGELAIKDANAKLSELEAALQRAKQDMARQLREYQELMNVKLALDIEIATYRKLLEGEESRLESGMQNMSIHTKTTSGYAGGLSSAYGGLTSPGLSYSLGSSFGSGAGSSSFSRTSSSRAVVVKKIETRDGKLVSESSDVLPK

T2: keratin 8 G62C recombinant protein (human, UniProt P05787 1-483, G62C)
T2 construct: keratin 8 (K8) with the IBD patient mutation G62C, recombinant protein; The mutation was found in IBD patients; also called K8 G62C
T2 sequence (looked up): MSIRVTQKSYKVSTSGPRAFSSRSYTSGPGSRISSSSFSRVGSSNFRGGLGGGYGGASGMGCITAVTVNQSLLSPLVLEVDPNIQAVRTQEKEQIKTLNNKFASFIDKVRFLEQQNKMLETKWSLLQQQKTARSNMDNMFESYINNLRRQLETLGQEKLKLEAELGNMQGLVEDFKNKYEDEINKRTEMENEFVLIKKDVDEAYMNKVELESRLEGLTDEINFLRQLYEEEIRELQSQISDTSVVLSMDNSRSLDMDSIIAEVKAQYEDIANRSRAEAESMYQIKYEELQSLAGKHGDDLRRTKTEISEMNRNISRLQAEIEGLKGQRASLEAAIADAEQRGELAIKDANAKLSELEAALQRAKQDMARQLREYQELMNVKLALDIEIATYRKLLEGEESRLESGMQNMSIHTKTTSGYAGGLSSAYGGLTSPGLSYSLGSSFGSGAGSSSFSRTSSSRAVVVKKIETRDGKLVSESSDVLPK

T3: keratin 8 K464N recombinant protein (human, UniProt P05787 1-483, K464N)
T3 construct: keratin 8 (K8) with the IBD patient mutation K464N, recombinant protein; The mutation was found in IBD patients; also called K8 K464N
T3 sequence (looked up): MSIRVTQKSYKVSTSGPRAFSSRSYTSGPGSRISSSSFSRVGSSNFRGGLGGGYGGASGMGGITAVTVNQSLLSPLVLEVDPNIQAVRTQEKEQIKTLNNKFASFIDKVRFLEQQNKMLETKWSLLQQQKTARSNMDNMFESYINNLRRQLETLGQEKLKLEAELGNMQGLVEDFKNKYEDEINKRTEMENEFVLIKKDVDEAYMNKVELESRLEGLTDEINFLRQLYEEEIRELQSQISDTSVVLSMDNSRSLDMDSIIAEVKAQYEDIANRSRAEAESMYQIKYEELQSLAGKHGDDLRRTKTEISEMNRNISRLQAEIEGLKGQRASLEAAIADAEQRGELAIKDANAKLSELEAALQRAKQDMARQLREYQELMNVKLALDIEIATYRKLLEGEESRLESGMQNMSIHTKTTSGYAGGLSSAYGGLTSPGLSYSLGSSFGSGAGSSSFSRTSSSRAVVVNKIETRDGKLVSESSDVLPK


Legend:
Settings in all cases: both partners purified
[1] = biological target: T1, keratin 8 wild type recombinant protein; assay: SPR; published SPR data of Owens et al. (ref. 26) re-analysed here with ENZO: Enzyme Kinetics to calculate Kd; monomeric K18 wild type or S230T in solution, wild type K8 immobilised
[2] = biological target: T2, keratin 8 G62C recombinant protein; assay: SPR; published SPR data of Owens et al. (ref. 26) re-analysed here with ENZO: Enzyme Kinetics to calculate Kd; K8 wild type or mutant in solution, wild type K18 partner immobilised
[3] = biological target: T3, keratin 8 K464N recombinant protein; assay: as above
[4] = biological target: T1, keratin 8 wild type recombinant protein; assay: as above

| Binder | Kd [1] [nM] | Kd [2] [nM] | Kd [3] [nM] | Kd [4] [nM] |
| --- | --- | --- | --- | --- |
| keratin 18 wild type recombinant protein (natural protein, human, UniProt P05783 1-430, looked up, keratin 18 (K18), wild type, recombinant protein; also called K18 WT; K18) MSFTTRSTFSTNYRSLGSVQAPSYGARPVSSAASVYAGAGGSGSRISVSRSTSFRGGMGSGGLATGIAGGLAGMGGIQNEKETMQSLNDRLASYLDRVRSLETENRRLESKIREHLEKKGPQVRDWSHYFKIIEDLRAQIFANTVDNARIVLQIDNARLAADDFRVKYETELAMRQSVENDIHGLRKVIDDTNITRLQLETEIEALKEELLFMKKNHEEEVKGLQAQIASSGLTVEVDAPKSQDLAKIMADIRAQYDELARKNREELDKYWSQQIEESTTVVTTQSAEVGAAETTLTELRRTVQSLEIDLDSMRNLKASLENSLREVEARYALQMEQLNGILLHLESELAQTRAEGQRQAQEYEALLNIKVKLEAEIATYRRLLEDGEDFNLGDALDSSNSMQTIQKTTTRRIVDGKVVSETNDTKVLRH | 8.5 | 26.2 | 13.4 | 8.5 |
| keratin 18 S230T recombinant protein (natural protein, human, UniProt P05783 1-430, looked up, keratin 18 (K18) with the variation S230T found in an IBD patient and in controls, recombinant protein; Natural variant, earlier designated a polymorphism; also called K18 S230T) MSFTTRSTFSTNYRSLGSVQAPSYGARPVSSAASVYAGAGGSGSRISVSRSTSFRGGMGSGGLATGIAGGLAGMGGIQNEKETMQSLNDRLASYLDRVRSLETENRRLESKIREHLEKKGPQVRDWSHYFKIIEDLRAQIFANTVDNARIVLQIDNARLAADDFRVKYETELAMRQSVENDIHGLRKVIDDTNITRLQLETEIEALKEELLFMKKNHEEEVKGLQAQIATSGLTVEVDAPKSQDLAKIMADIRAQYDELARKNREELDKYWSQQIEESTTVVTTQSAEVGAAETTLTELRRTVQSLEIDLDSMRNLKASLENSLREVEARYALQMEQLNGILLHLESELAQTRAEGQRQAQEYEALLNIKVKLEAEIATYRRLLEDGEDFNLGDALDSSNSMQTIQKTTTRRIVDGKVVSETNDTKVLRH | 161 | – | – | – |
